Assay results reported in US20030096757.

Target: T1, 19-mer (SEQ ID NO:11) cleavage domain peptide
T1 chain: PRCGNPDVANYNFFPRKPK

B1: Proenzyme pro-MMP-9 (protein)
chain: APRQRQSTLVLFPGDLRTNLTDRQLAEEYLYRYGYTRVAEMRGESKSLGPALLLLQKQLSLPETGELDSATLKAMRTPRCGVPDLGRFQTFEGDLKWHHHNITYWIQNYSEDLPRAVIDDAFARAFALWSAVTPLTFTRVYSRDADIVIQFGVAEHGDGYPFDGKDGLLAHAFPPGPGIQGDAHFDDDELWSLGKGVVVPTRFGNADGAACHFPFIFEGRSYSACTTDGRSDGLPWCSTTANYDTDDRFGFCPSERLYTQDGNADGKPCQFPFIFQGQSYSACTTDGRSDGYRWCATTANYDRDKLFGFCPTRADSTVMGGNSAGELCVFPFTFLGKEYSTCTSEGRGDGRLWCATTSNFDSDKKWGFCPDQGYSLFLVAAHEFGHALGLDHSSVPEALMYPMYRFTEGPPLHKDDVNGIRHLYGPRPEPEPRPPTTTTPQPTAPPTVCPTGPPTVHPSERPTAGPTGPPSAGPTGPPTAGPSTATTVPLSPVDDACNVNIFDAIAEIGNQLYLFKDGKYWRFSEGRGSRPQGPFLIADKWPALPRKLDSVFEERLSKKLFFFSGRQVWVYTGASVLGPRRLDKLGLGADVAQVTGALRSGRGKMLLFSGRRLWRFDVKAQMVDPRSASEVDRMFPGVPLDTHDVFQYREKAYFCQDRFYWRVSSRSELNQVDQVGYVTYDILQCPED
anti-activation (splicing) assay: conversion of pro-MMP-9 by stromilysin, HPLC peak areas: Titrating the standard splicing reaction with the 19-mer (SEQ ID NO:11) peptide prevents the conversion of pro-MMP-9 into the prodomain and the active enzyme. Splicing can be inhibited in a dose dependent manner with micromolar 19-mer (SEQ ID NO:11) peptide.
